PMC4906154, “Mitochondrial disease-related mutations at the cytochrome b-iron–sulfur protein (ISP) interface: Molecular effects on the large-scale motion of ISP and superoxide generation studied in Rhodobacter capsulatus cytochrome bc1^” (Biochimica et Biophysica Acta, 2016)
Residue numbers refer to the chain shown, from its start. Names may count otherwise.

B1: cytochrome bc1 (R. capsulatus bc1 complex) (Rhodobacter capsulatus) (protein)
chain 1: MSGIPHDHYEPKTGIEKWLHDRLPIVGLVYDTIMIPTPKNLNWWWIWGIVLAFTLVLQIVTGIVLAIDYTPHVDLAFASVEHIMRDVNGGWAMRYIHANGASLFFLAVYIHIFRGLYYGSYKAPREITWIVGMVIYLLMMGTAFMGYVLPWGQMSFWGATVITGLFGAIPGIGPSIQAWLLGGPAVDNATLNRFFSLHYLLPFVIAALVAIHIWAFHTTGNNNPTGVEVRRTSKADAEKDTLPFWPYFVIKDLFALALVLLGFFAVVAYMPNYLGHPDNYIQANPLSTPAHIVPEWYFLPFYAILRAFAADVWVVILVDGLTFGIVDAKFFGVIAMFGAIAVMALAPWLDTSKVRSGAYRPKFRMWFWFLVLDFVVLTWVGAMPTEYPYDWISLIASTYWFAYFLVILPLLGATEKPEPIPASIEEDFNSHYGNPAE
chain 2: MSHAEDNAGTRRDFLYHATAATGVVVTGAAVWPLINQMNASADVKAMSSIFVDVSAVEVGTQLTVKWRGKPVFIRRRDEKDIELARSVPLGALRDTSAENANKPGAEATDENRSLAAFDGTNTGEWLVMLGVCTHLGCVPMGDKSGDFGGWFCPCHGSHYDSAGRIRKGPAPRNLDIPVAAFVDETTIKLG
notes: petABC operon from plasmid pPET1, C-terminal Strep-tag on cytochrome b, expressed in R. capsulatus MT-RBC1 (host), DDM-solubilised from chromatophores, Strep-tag purified; homodimer of 3 catalytic subunits; with Cytochrome c1
B2: cytochrome bc1 (R. capsulatus bc1 complex) (Rhodobacter capsulatus; P0CY47:G332D) (protein)
chain 1: B1 chain 1 with G332D
chain 2: B1 chain 2
notes: as for B1

Substrate: CCCCCCCCCCc1c(C)c(O)c(OC)c(OC)c1O
Assay: steady-state cytochrome c reduction, spectroscopic, Michaelis-Menten fit
Format: biochemical, Rhodobacter capsulatus
Details: 20 μM bovine heart cytochrome c, 50 mM Tris pH 8.0, 0.01% DDM, 100 mM NaCl, DBH2 0.5-20 μM, Qo site, turnover given as Vmax

Row | Protein | Km [µM] | kcat [s⁻¹]
1 | B1 | 2.3 ± 0.5 | 146 ± 9
2 | B2 | 1.1 ± 0.2 | 45 ± 2
